Measurements from patent US20110008350A1 (published 2011).

T1: Integrin alpha-3 (mouse, UniProt Q62470 33-1053, limits assumed)
T1 construct: also called Itga3; α3β1 integrin (alpha chain)
T1 sequence (looked up): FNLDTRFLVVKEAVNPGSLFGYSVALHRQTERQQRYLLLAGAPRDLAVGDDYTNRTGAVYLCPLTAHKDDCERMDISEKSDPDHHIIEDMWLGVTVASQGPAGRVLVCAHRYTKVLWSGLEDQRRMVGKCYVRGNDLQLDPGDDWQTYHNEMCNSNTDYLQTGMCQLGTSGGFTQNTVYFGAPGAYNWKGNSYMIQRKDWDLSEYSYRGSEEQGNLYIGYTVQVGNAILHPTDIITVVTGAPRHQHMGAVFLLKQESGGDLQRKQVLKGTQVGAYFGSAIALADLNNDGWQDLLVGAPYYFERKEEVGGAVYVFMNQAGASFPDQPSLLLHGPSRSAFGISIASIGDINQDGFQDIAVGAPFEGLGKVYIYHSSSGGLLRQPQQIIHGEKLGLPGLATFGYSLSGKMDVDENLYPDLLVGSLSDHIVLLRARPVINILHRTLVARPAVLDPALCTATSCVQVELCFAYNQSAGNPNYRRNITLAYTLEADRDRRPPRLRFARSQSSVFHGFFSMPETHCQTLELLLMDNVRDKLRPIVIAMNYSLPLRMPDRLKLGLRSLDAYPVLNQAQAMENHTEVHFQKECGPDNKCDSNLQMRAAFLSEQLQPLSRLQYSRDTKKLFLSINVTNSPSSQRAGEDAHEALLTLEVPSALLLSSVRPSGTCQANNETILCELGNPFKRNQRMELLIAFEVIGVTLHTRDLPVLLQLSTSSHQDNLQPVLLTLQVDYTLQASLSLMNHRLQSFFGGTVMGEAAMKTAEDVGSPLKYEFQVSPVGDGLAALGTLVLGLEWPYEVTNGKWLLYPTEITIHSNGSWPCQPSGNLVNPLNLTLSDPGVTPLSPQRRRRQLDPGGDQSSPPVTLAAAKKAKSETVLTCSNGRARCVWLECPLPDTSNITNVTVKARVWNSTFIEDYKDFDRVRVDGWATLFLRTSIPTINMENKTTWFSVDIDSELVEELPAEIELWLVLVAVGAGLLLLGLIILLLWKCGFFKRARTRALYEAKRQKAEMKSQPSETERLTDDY

T2: PGRL/EWI-2 (endogenous, MEF cells) (mouse, UniProt Q8R366 26-611)
T2 construct: also called Igsf8
T2 sequence (looked up): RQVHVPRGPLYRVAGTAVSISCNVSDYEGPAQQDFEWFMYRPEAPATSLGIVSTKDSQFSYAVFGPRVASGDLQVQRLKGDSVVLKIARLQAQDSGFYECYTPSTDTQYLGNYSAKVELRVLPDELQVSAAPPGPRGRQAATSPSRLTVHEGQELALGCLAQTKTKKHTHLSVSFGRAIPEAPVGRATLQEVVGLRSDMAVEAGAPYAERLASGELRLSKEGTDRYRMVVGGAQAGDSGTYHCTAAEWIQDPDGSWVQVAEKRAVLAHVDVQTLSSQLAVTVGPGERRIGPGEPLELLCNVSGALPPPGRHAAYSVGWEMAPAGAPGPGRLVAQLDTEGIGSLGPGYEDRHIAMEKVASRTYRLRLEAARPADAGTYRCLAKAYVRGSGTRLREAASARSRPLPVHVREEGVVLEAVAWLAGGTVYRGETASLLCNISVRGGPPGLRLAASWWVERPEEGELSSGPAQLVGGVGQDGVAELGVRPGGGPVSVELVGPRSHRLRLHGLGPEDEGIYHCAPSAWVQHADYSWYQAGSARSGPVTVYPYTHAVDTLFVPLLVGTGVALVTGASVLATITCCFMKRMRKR

B1: dTag PSH1 (double-tagged human Presenilin homolog 1) (other, UniProt Q8TCT6 1-384, looked up, not shown: small tags and cut ends)
chain: MAEQTYSWAYSLVDSSQVSTFLISILLIVYGSFRSLNMDFENQDKEKDSNSSSGSFNGNSTNNSIQTIDSTQALFLPIGASVSLLVMFFFFDSVQVVFTICTAVLATIAFAFLLLPMCQYLTRPCSPQNKISFGCCGRFTAAELLSFSLSVMLVLIWVLTGHWLLMDALAMGLCVAMIAFVRLPSLKVSCLLLSGLLIYDVFWVFFSAYIFNSNVMVKVATQPADNPLDVLSRKLHLGPNVGRDVPRLSLPGKLVFPSSTGSHFSMLGIGDIVMPGLLLCFVLRYDNYKKQASGDSCGAPGPANISGRMQKVSYFHCTLIGYFVGLLTATVASRIHRAAQPALLYLVPFTLLPLLTMAYLKGDLRRMWSEPFHSKSSSSRFLEV
notes: Control bait, stably expressed in PS dKO MEF cells; also called dTag SPPL3; SPP-like protease 3
B2: CD81/TAPA-1 (endogenous, MEF cells) (other, mouse, UniProt P35762 1-236, looked up)
chain: MGVEGCTKCIKYLLFVFNFVFWLAGGVILGVALWLRHDPQTTSLLYLELGNKPAPNTFYVGIYILIAVGAVMMFVGFLGCYGAIQESQCLLGTFFTCLVILFACEVAAGIWGFVNKDQIAKDVKQFYDQALQQAVMDDDANNAKAVVKTFHETLNCCGSNALTTLTTTILRNSLCPSGGNILTPLLQQDCHQKIDELFSGKLYLIGIAAIVVAVIMIFEMILSMVLCCGIRNSSVY

Experiments:
Integrin alpha-3 = target: T1, Integrin alpha-3; assay: TAP-tag purification from MEF membranes, LC-MS/MS
Experimental: (§1) Harvested MEF cells were re-suspended in STE buffer (5 mM Tris-HCl pH 7.4, 250 mM sucrose, 1 mM EGTA) supplemented with the Complete protease inhibitors. The cells were lysed by being passed ten times through a ball-bearing cell cracker followed by removal of the nuclei and cell debris by centrifugation at 800×g for ten minutes at 4° C. The supernatant was further centrifuged at 100,000×g for 60 minutes at 4° C. The microsomal membrane pellet was re-suspended in the solubilization buffer (HEPES buffer; 50 mM HEPES pH 7.2, 150 mM NaCl with 1% 3-[(3-Cholamidopropyl)dimethylammonio]-2-hydroxy-1-propanesulfonate (CHAPSO, Calbiochem) or 0.5% 3-[(3-Cholamidopropyl) dimethylammonio]-1-propanesulfonate (CHAPS, Calbiochem)) supplemented with the Complete protease inhibitors and was solubilized at 4° C. for three hours. After centrifugation at 100,000×g for 60 minutes at 4° C., the supernatant was saved and protein concentration was determined. The solubilized membranes were applied on pre-equilibrated anti-FLAG M2 affinity gel (Sigma). The gel was washed with the solubilization buffer and bound proteins were eluted with solubilization buffer with 20 μg/ml of FLAG peptides (Sigma). […] After washing, the bound proteins were eluted with 5 mM EGTA.

Integrin beta-1 = target: T3, Integrin beta-1 (mouse, UniProt P09055 21-798); assay: TAP-tag purification from MEF membranes, LC-MS/MS
T3 construct: also called Itgb1; α3β1 integrin (beta chain)
Experimental: as §1

[1] = target: T2, PGRL/EWI-2 (endogenous, MEF cells); assay: TAP-tag purification from MEF membranes, LC-MS/MS
Experimental: as §1

[2] = target: T4, Nicastrin (endogenous, MEF cells) (mouse, UniProt P57716 28-708); assay: TAP-tag purification from MEF membranes, Western blot
T4 construct: also called NCT

[3] = target: B1; assay: TAP-tag purification from MEF membranes, LC-MS/MS
Experimental: as §1

binding result (Integrin alpha-3) | binding result (Integrin beta-1) | binding result [1] | binding result [2] | binding result [3] | Binder
no binding | no binding | no binding | no binding | – | B1
– | – | – | – | no binding | B2
